Laboratory results taken from US20060275823A1.

Target: GG (GST-ICS linker-GFP model substrate for ICE) [GST: P08515]
Assay: cell-based or functional assay

IC50 of inhibition of the cleavage of GG by ICE: 50 to 100 µM
B1: LEPB (peptide)
peptide: KARKEAELAAATAEQ
